Source: article PMC3319311 (Nature, 2012)
One block for each binder: values may come before it.

Columns and labels:
[1] = target: T1, human OTUB1 (OTU domain-containing ubiquitin aldehyde-binding protein 1) (human, UniProt Q96FW1 1-271); assay: fluorescence polarisation
hOTUB1 F193W = hOTUB1 F193W (human, UniProt Q96FW1 1-271, F193W); assay: fluorescence polarisation
hOTUB1 F193R = hOTUB1 F193R (human, UniProt Q96FW1 1-271, F193R); assay: fluorescence polarisation
hOTUB1 H217W = hOTUB1 H217W (human, UniProt Q96FW1 1-271, H217W); assay: fluorescence polarisation
Chain of hOTUB1 H217W (Q96FW1 whole entry H217W): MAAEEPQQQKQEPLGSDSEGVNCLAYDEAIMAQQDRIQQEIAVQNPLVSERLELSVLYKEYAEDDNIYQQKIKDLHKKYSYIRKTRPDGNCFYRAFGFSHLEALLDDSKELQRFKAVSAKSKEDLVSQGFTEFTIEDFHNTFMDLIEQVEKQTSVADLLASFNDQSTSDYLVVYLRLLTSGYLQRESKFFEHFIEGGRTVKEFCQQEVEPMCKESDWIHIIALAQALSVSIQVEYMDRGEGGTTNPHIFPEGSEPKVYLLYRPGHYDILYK

[2] = target: T2, Caenorhabditis elegans OTUB1 (Caenorhabditis elegans, UniProt Q9XVR6); assay: fluorescence polarisation
T2 sequence: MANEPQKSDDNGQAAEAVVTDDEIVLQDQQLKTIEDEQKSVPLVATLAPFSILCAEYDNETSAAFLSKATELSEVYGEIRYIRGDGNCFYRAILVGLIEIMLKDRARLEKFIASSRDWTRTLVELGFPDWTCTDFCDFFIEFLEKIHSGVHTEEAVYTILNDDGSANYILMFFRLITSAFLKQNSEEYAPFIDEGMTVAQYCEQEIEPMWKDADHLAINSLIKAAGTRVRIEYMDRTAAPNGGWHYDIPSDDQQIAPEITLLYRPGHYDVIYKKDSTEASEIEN

His6-tagged human OTUB1 = His6-tagged human OTUB1 (human, UniProt Q96FW1 1-271); assay: pull-down
Chain of His6-tagged human OTUB1 (Q96FW1 whole entry): as the sequence (Q96FW1 whole entry H217W) above, with W217H counted along it

hOTUB1Δ15 = hOTUB1Δ15 (human, UniProt Q96FW1 16-271); assay: pull-down
Chain of hOTUB1Δ15 (Q96FW1 16-271, stated change not applied): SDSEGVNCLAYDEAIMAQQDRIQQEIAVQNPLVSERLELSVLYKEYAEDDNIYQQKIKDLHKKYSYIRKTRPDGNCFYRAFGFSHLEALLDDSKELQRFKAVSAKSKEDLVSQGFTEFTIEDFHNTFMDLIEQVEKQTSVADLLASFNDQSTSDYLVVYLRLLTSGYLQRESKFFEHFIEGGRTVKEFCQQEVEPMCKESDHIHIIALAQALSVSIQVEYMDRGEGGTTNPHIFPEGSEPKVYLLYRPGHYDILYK

[3] = target: T1, human OTUB1 (OTU domain-containing …); assay: SEC

T1 sequence (Q96FW1 whole entry, the tested form may be a part): as the sequence (Q96FW1 whole entry H217W) above, with W217H counted along it
Chain of hOTUB1 F193R (Q96FW1 whole entry F193R): as the sequence (Q96FW1 whole entry H217W) above, with F193R, W217H counted along it
Chain of hOTUB1 F193W (Q96FW1 whole entry F193W): as the sequence (Q96FW1 whole entry H217W) above, with F193W, W217H counted along it

Kd [1]: 7.04 µM
binding result (hOTUB1 F193W): binds
binding result (hOTUB1 F193R): binds
binding result (hOTUB1 H217W): binds
Kd [2]: 58.5 µM
B1: fluorescein-labeled human UBC13 (enzyme)
chain: MAGLPRRIIKETQRLLAEPVPGIKAEPDESNARYFHVVIAGPQDSPFEGGTFKLELFLPEEYPMAAPKVRFMTKIYHPNVDKLGRICLDILKDKWSPALQIRTVLLSIQALLSAPNPDDPLANDVAEQWKTNEAQAIETARAWTRLYAMNNI
modifications: labeled with fluorescein-5-maleimide

binding result (His6-tagged human OTUB1): binds
binding result (hOTUB1Δ15): binds
B2: UBC13^C87S~Ub oxyester (complex)
chain 1: MAGLPRRIIKETQRLLAEPVPGIKAEPDESNARYFHVVIAGPQDSPFEGGTFKLELFLPEEYPMAAPKVRFMTKIYHPNVDKLGRISLDILKDKWSPALQIRTVLLSIQALLSAPNPDDPLANDVAEQWKTNEAQAIETARAWTRLYAMNNI
chain 2: […]

binding result [3]: binds
B3: human UBC13 (UBE2N) (enzyme)
chain: MAGLPRRIIKETQRLLAEPVPGIKAEPDESNARYFHVVIAGPQDSPFEGGTFKLELFLPEEYPMAAPKVRFMTKIYHPNVDKLGRICLDILKDKWSPALQIRTVLLSIQALLSAPNPDDPLANDVAEQWKTNEAQAIETARAWTRLYAMNNI
